Target: T1, full length rat SD (Shen-Dan) protein expressed from pSDf in HEK293T cells (rat, UniProt Q2VWP9 24-1193)
T1 construct: Full-length rat SD amplified from E10.5 rat cDNA and ligated into pEF1/Myc-His (pSDf); also called SD-expressing cells
T1 sequence: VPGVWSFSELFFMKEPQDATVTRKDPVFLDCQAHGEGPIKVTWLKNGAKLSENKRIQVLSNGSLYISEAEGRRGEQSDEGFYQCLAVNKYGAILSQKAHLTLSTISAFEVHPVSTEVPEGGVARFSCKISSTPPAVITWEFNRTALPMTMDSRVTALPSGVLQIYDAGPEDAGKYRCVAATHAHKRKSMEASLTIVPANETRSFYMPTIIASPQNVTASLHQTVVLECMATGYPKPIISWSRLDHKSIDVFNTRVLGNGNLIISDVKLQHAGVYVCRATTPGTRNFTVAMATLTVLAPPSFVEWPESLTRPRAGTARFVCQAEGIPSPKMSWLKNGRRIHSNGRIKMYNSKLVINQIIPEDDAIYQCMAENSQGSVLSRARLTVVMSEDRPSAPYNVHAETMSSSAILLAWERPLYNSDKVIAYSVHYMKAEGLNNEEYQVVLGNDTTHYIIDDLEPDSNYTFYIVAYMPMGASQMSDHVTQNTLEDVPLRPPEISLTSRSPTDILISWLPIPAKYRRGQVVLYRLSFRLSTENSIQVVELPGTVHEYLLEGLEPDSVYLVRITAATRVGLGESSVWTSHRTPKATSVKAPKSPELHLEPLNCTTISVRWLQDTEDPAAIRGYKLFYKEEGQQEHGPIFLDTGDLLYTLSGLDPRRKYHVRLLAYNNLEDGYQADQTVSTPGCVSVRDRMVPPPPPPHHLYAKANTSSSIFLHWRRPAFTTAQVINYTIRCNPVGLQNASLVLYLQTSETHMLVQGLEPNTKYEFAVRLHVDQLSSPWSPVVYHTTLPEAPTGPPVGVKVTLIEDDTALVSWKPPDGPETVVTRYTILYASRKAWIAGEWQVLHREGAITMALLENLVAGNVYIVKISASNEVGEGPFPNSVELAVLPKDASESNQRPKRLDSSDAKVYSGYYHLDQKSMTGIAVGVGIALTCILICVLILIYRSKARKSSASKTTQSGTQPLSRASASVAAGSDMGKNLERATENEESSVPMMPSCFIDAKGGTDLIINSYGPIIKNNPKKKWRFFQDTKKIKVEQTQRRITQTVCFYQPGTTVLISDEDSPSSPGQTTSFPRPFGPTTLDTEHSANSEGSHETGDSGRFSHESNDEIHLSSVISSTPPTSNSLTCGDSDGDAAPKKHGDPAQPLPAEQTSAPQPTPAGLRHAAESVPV
Assay: in situ binding assay, conditioned medium on pSDf-transfected HEK293T cells, immunofluorescence (anti-myc 9E10)
Source text: HEDJ/ERdj3 binds to the SD extracellular domain. a, Schematic representation of eight HEDJ/ERdj3 clones identified by yeast two-hybrid screening and their interaction with the SD extracellular domain, shown as activity in an X-gal assay. b, Various sd deletion mutants were examined for their ability to interact with C-terminal HEDJ/ERdj3. c, HEK293T cells were transiently transfected with pHEDJ or a control vector. Three days after transfection, conditioned medium (CM) and total cell lysate (TCL) were subjected to Western blotting to detect HEDJ/ERdj3 using anti-myc antibody. d, Quantification of HEDJ/ERdj3 binding to SD-expressing cells. HEK293T cells were transiently transfected with pSDf or control vector. SD expression was detected by W4 antiserum. Binding of HEDJ/ERdj3 on the cells was detected by anti-myc mAb. Cell nuclei were visualized by DAPI. […] Data were normalized relative to fluorescence intensity of the cells transfected with pSDf in the presence of control CM. Results are shown as means±s.e.m., from a total of 50 cells. (*, p<0.001; by student's t-test).
HEK293T cells were transfected with pSDf using FuGENE 6 (Roche). […] The fluorescence signal was quantified using ImageJ software (NIH, Bethesda, Md., USA).

- binding result: binds
B1: C-terminal His-myc-tagged HEDJ/ERdj3 protein secreted from pHEDJ-transfected HEK293T cells (ligand, mouse, UniProt Q99KV1 23-358, looked up)
chain: GRDFYKILGVPRSASIKDIKKAYRKLALQLHPDRNPDDPQAQEKFQDLGAAYEVLSDSEKRKQYDTYGEEGLKDGHQSSHGDIFSHFFGDFGFMFGGTPRQQDRNIPRGSDIIVDLEVTLEEVYAGNFVEVVRNKPVARQAPGKRKCNCRQEMRTTQLGPGRFQMTQEVVCDECPNVKLVNEERTLEVEIEPGVRDGMEYPFIGEGEPHVDGEPGDLRFRIKVVKHRIFERRGDDLYTNVTVSLVEALVGFEMDITHLDGHKVHISRDKITRPGAKLWKKGEGLPNFDNNNIKGSLIITFDVDFPKEQLTEEAKEGIKQLLKQGPVQKVYNGLQGY
notes: mature; also called secreted HEDJ/ERdj3; not shown: C-terminal His-myc tag from pEF1/Myc-His

Reference: patent US20050287664A1 (published 2005)
